This is an account of results in PMC11640050.

The target of this test is Rictor (R28 cells). Description: co-IP (Rictor IP) with DSP crosslinker, western blot band quantification. The settings on record: TNF+HG treatment.

With “3X-FLAG-tagged wild-type HSPB4 (αA-crystallin) (from UniProt P02489) R21A”, the ratio to parent was 0.35.

As for “3X-FLAG-tagged wild-type HSPB4 (αA-crystallin) (from UniProt P02489) R49A”, the ratio to parent came to 0.26.

For the substance “3X-FLAG-tagged wild-type HSPB4 (αA-crystallin) (from UniProt P02489) T148A”, the ratio to parent turned out to be 0.75.

“3X-FLAG-tagged wild-type HSPB4 (αA-crystallin) (from UniProt P02489) T148D”: the ratio to parent amounted to 0.11.
